Values quoted from earlier work as cited in article PMC3283658.
pKd: −log10 of the molar value.

Target: IL-15Rβγ (Homo sapiens) (UniProt P14784)
Sequence of UniProt P14784 (P14784 27-240, chain 1 of 2): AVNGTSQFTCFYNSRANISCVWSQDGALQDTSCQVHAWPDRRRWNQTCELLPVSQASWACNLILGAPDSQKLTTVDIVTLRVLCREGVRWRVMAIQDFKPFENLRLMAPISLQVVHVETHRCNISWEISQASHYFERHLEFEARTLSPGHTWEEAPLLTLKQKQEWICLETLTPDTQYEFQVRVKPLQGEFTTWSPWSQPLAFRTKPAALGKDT
Sequence of UniProt P14784 (P31785 23-262, chain 2 of 2, further chain): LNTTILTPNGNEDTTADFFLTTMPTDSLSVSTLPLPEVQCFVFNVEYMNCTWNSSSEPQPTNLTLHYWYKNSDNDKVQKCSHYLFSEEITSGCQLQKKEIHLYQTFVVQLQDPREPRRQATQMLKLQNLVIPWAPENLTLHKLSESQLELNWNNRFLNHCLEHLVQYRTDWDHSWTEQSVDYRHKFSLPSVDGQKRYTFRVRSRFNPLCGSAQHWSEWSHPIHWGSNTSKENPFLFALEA

IL-15 (from UniProt P40933)
pKd: 8.40
